To fix the notation:
B1: GFP-GST-Rad54 (enzyme, Saccharomyces cerevisiae, UniProt P32863 1-898, looked up)
chain: MARRRLPDRPPNGIGAGERPRLVPRPINVQDSVNRLTKPFRVPYKNTHIPPAAGRIATGSDNIVGGRSLRKRSATVCYSGLDINADEAEYNSQDISFSQLTKRRKDALSAQRLAKDPTRLSHIQYTLRRSFTVPIKGYVQRHSLPLTLGMKKKITPEPRPLHDPTDEFAIVLYDPSVDGEMIVHDTSMDNKEEESKKMIKSTQEKDNINKEKNSQEERPTQRIGRHPALMTNGVRNKPLRELLGDSENSAENKKKFASVPVVIDPKLAKILRPHQVEGVRFLYRCVTGLVMKDYLEAEAFNTSSEDPLKSDEKALTESQKTEQNNRGAYGCIMADEMGLGKTLQCIALMWTLLRQGPQGKRLIDKCIIVCPSSLVNNWANELIKWLGPNTLTPLAVDGKKSSMGGGNTTVSQAIHAWAQAQGRNIVKPVLIISYETLRRNVDQLKNCNVGLMLADEGHRLKNGDSLTFTALDSISCPRRVILSGTPIQNDLSEYFALLSFSNPGLLGSRAEFRKNFENPILRGRDADATDKEITKGEAQLQKLSTIVSKFIIRRTNDILAKYLPCKYEHVIFVNLKPLQNELYNKLIKSREVKKVVKGVGGSQPLRAIGILKKLCNHPNLLNFEDEFDDEDDLELPDDYNMPGSKARDVQTKYSAKFSILERFLHKIKTESDDKIVLISNYTQTLDLIEKMCRYKHYSAVRLDGTMSINKRQKLVDRFNDPEGQEFIFLLSSKAGGCGINLIGANRLILMDPDWNPAADQQALARVWRDGQKKDCFIYRFISTGTIEEKIFQRQSMKMSLSSCVVDAKEDVERLFSSDNLRQLFQKNENTICETHETYHCKRCNAQGKQLKRAPAMLYGDATTWNHLNHDALEKTNDHLLKNEHHYNDISFAFQYISH
B2: GFP-GST-Rad54 S816AS817A (enzyme, Saccharomyces cerevisiae, UniProt P32863 1-898, looked up)
chain: B1 chain with S816A, S817A
B3: Rad51 (natural protein, UniProt P25454 1-400, looked up)
chain: MSQVQEQHISESQLQYGNGSLMSTVPADLSQSVVDGNGNGSSEDIEATNGSGDGGGLQEQAEAQGEMEDEAYDEAALGSFVPIEKLQVNGITMADVKKLRESGLHTAEAVAYAPRKDLLEIKGISEAKADKLLNEAARLVPMGFVTAADFHMRRSELICLTTGSKNLDTLLGGGVETGSITELFGEFRTGKSQLCHTLAVTCQIPLDIGGGEGKCLYIDTEGTFRPVRLVSIAQRFGLDPDDALNNVAYARAYNADHQLRLLDAAAQMMSESRFSLIVVDSVMALYRTDFSGRGELSARQMHLAKFMRALQRLADQFGVAVVVTNQVVAQVDGGMAFNPDPKKPIGGNIMAHSSTTRLGFKKGKGCQRLCKVVDSPCLPEAECVFAIYEDGVGDPREEDE

Positions count from the first letter of the chain named.

Common to all, as to test: single-molecule DNA curtains
The target of the assay “Rad51” is B3.
The target of the assay “GFP-GST-Rad54 S816AS817A” is B2.
A further assay deals with T1, GFP-GST-Rad54 S816DS817D (Saccharomyces cerevisiae, UniProt P32863 1-898, S816D | S817D).
T1 sequence (looked up): B1 chain with S816D, S817D

For the assay “GFP-GST-Rad54”, the target named is B1.

Take B1: the “fold change of Rad54 molecules per PSC, flow off against constant flow” value with Rad51 is 2 fold. The same measure, in the same setting: the same measure for B2: 2 fold. For the molecule B3, the binding result with GFP-GST-Rad54 S816AS817A, with GFP-GST-Rad54 S816DS817D and with GFP-GST-Rad54 was “binds” each time.

The values are drawn from paper doi:10.1101/2025.10.15.682645 (bioRxiv, 2025).
